± gives the uncertainty stated by the source.
Assay: protein stability index of a GFP-peptide fusion (yeast GPS) (PSI 1-4); higher = more stable; sorted into four equal gates, so the index is relative within each strain
How it was run: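 Tiled yeast protein peptides of 17 residues were each joined downstream of GFP, on plasmids that also express Cherry. The pooled library was maintained in yeast, and mid-log cultures in leucine-free medium were sorted into four equal gates on the GFP/Cherry ratio. Plasmids from every gate were amplified by PCR and sequenced on Illumina, with barcodes linking reads to strains. The protein stability index of a peptide is its gate-number-weighted read frequency summed over the gates.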

Row | Sequence | protein stability index (doa10∆) | protein stability index (pdr5∆) | protein stability index (san1∆) | protein stability index (ubr1∆)
1 | FSAPIRPDIVHTVFTSV [RPL4A] | 1.7 ± 0.056 | 2.07 ± 0.057 | 1.73 ± 0.094 | 2.16 ± 0.056
2 | VIVLSNISHLLEIASSI [SWI1] | 2.35 ± 0.059 | 1.67 ± 0.063 | 2.07 ± 0.082 | 1.8 ± 0.041
3 | YKLNVRSNDPQSSLSKV [NUT2] | 3.21 ± 0.12 | 3.42 ± 0.12 | 3.33 ± 0.071 | 3.41 ± 0.095
4 | TKFLAKNGVIPEESKGS [SWP82] | 3.19 ± 0.096 | 3.16 ± 0.11 | 2.98 ± 0.15 | 3.45 ± 0.13
5 | SGEEKGKKVTGFKDEVL [RPS1A] | 1.39 ± 0.24 | 1.73 ± 0.22 | – | 1.61 ± 0.14
6 | SLSFGSGSAGANPAGAS [YJL041W/NSP1] | 2.92 ± 0.13 | 2.89 ± 0.13 | 2.75 ± 0.18 | 3.1 ± 0.085
7 | KNVRFRVLQLLAVIMDN [YCG1] | 1.64 ± 0.057 | 1.54 ± 0.06 | 1.24 ± 0.099 | 1.51 ± 0.043
8 | NEPLSEIEIEGVMSLLQ [YAR002W/NUP60] | 3.31 ± 0.093 | 3.32 ± 0.14 | 3.22 ± 0.11 | 3.19 ± 0.094
9 | AELQSNLQVELLSEHDD [YGL100W/SEH1] | 2.61 ± 0.083 | 2.95 ± 0.065 | 2.62 ± 0.07 | 2.87 ± 0.061
10 | AFFREKGLVSQQLDSFN [RPB2] | 3.11 ± 0.13 | 3.17 ± 0.19 | 2.96 ± 0.1 | 2.97 ± 0.087
11 | VTFSPTGRLFQVEYALE [PRE5] | 3.28 ± 0.099 | 2.77 ± 0.12 | 2.93 ± 0.23 | 2.79 ± 0.062
12 | RIKEMYWKLWIDEPFNL [FAS1] | 3.39 ± 0.086 | 3.25 ± 0.078 | 2.76 ± 0.12 | 2.91 ± 0.075
13 | LRSKLFQFKLLQSNSKL [SMC4] | 1.84 ± 0.056 | 1.79 ± 0.053 | 1.59 ± 0.079 | 2.23 ± 0.037
14 | NKKGRGHVKPVRCVNCS [RPS26A] | 3.18 ± 0.065 | 2.98 ± 0.077 | 2.98 ± 0.085 | 3.02 ± 0.076
15 | MDLLKFSSLAISEINFL [CSI1] | 2.1 ± 0.045 | 2.49 ± 0.037 | 2.16 ± 0.053 | 2.35 ± 0.047
16 | MKAVRKVAEVKKLEGTI [RPT4] | 3.15 ± 0.093 | 3.2 ± 0.1 | 3.16 ± 0.073 | 3.56 ± 0.071
17 | ARNLYIIAVKGSGSRLN [RPL23A] | 1.27 ± 0.041 | 1.19 ± 0.044 | 1.22 ± 0.088 | 1.35 ± 0.042
18 | KDFTNKNLIQLISLKLL [SRB8] | 1.28 ± 0.042 | 1.49 ± 0.035 | 1.66 ± 0.067 | 1.91 ± 0.032
19 | VNTTRRFQYSDDEPAEK [YMR129W/POM152] | 2.87 ± 0.22 | 3.17 ± 0.17 | 2.86 ± 0.19 | 2.95 ± 0.19
20 | VSGNNASDEPSRKKNRR [SSN3] | 2.67 ± 0.1 | 3.01 ± 0.11 | 2.78 ± 0.14 | 2.91 ± 0.096
21 | KPFLKGLVNHRVGVKLK [SMX3] | 2.76 ± 0.042 | 2.21 ± 0.041 | 2.07 ± 0.052 | 1.78 ± 0.031
22 | TNQDGLKFVKVRVRTTK [RPB2] | 2.42 ± 0.084 | 3.05 ± 0.12 | 3.3 ± 0.1 | 3.2 ± 0.088
23 | THRNKDGTGVRVIVAGT [FAS1] | 2.16 ± 0.26 | 1.59 ± 0.082 | 1.62 ± 0.21 | 1.6 ± 0.15
24 | FNRDNKVSPAAAAKKAL [RPS26B] | 2.4 ± 0.12 | 2.5 ± 0.21 | 2.61 ± 0.11 | 2.79 ± 0.12
25 | TFEQFKDTIVKEAEDKT [RPC37] | – | – | – | 2.43 ± 0.29
26 | TVRLVNLFSSTGFKGLL [SRB2] | 2.31 ± 0.073 | 2.73 ± 0.055 | 2.76 ± 0.06 | 2.9 ± 0.039
27 | LESKMSEVGDAFIFGLQ [SMC3] | 3.29 ± 0.061 | 3.28 ± 0.06 | 3.31 ± 0.041 | 3.34 ± 0.052

Row | Sequence | protein stability index (doa10∆) | protein stability index (pdr5∆) | protein stability index (san1∆) | protein stability index (ubr1∆)
28 | FLQRIDFQIDGNIFELL [RRI2] | 2.63 ± 0.1 | 2.92 ± 0.071 | 2.37 ± 0.07 | 2.64 ± 0.048
29 | TSKMNLSEDVNLETLVT [RPT2] | 2.6 ± 0.14 | 2.85 ± 0.16 | 2.62 ± 0.15 | 2.78 ± 0.11
30 | QQLNKQRQDFERVRLRP [SNF6] | 2.85 ± 0.062 | 2.73 ± 0.079 | 2.75 ± 0.069 | 2.79 ± 0.045
31 | EAHNKALNQFKRKLLEH [RPT4] | 3.32 ± 0.27 | 3.14 ± 0.17 | 3.46 ± 0.12 | 3.4 ± 0.15
32 | IVWRFISENTFPNGFKN [RPC34] | 1.84 ± 0.06 | 2.05 ± 0.042 | 2.06 ± 0.077 | 2.33 ± 0.046
33 | LLKSNDPLLSLYNFLHK [RGR1] | 2.31 ± 0.056 | 2.23 ± 0.053 | 2.54 ± 0.048 | 2.55 ± 0.041
34 | YVLRNVLRIPEEYLDAN [MTW1] | 2.67 ± 0.12 | 2.33 ± 0.15 | 3 ± 0.061 | 2.82 ± 0.088
35 | IFCVGSGQTFAYGVLDS [PRE2] | 2.49 ± 0.095 | 2.04 ± 0.11 | 2.249 ± 0.019 | 2.33 ± 0.073
36 | RSPVFALNMLPSEILHL [GRR1] | 2.3 ± 0.049 | 2.27 ± 0.042 | 2.4 ± 0.053 | 2.19 ± 0.028
37 | RKTLKEKAIPKDQRATT [RPO26] | 3.06 ± 0.057 | 3.18 ± 0.064 | 3.04 ± 0.049 | 3.31 ± 0.07
38 | VKWQYDPNNPVDFDGLD [SNF12] | 2.74 ± 0.062 | 3.02 ± 0.053 | 2.25 ± 0.07 | 2.87 ± 0.03
39 | KKDVEKELPDKVEKVVK [SNF2] | 3.52 ± 0.23 | 3.47 ± 0.14 | 3.39 ± 0.099 | 3.34 ± 0.089
40 | NIVQVFKKAAPSPISHV [RPB2] | 2.2 ± 0.11 | 2.33 ± 0.071 | 2.16 ± 0.075 | 2.09 ± 0.043
41 | KLSDNISICMILCGIQE [YDL116W/NUP84] | 2.23 ± 0.074 | 1.86 ± 0.083 | 2.62 ± 0.12 | 2.06 ± 0.11
42 | TGEKPIITGSTSTSSSN [MED8] | 2.79 ± 0.048 | 2.52 ± 0.04 | 2.57 ± 0.044 | 2.37 ± 0.033
43 | SHNENKMDFSSKEGQYK [YIL149C/MLP2] | 3.27 ± 0.077 | 3.29 ± 0.07 | 3.25 ± 0.065 | 3.28 ± 0.064
44 | SKSTSMKLSMPPEVTSS [POP1] | 2.4 ± 0.053 | 2.59 ± 0.062 | 2.44 ± 0.057 | 2.54 ± 0.035
45 | TCQILESGEDEAEFSLR [RRP46] | – | 2.62 ± 0.28 | – | 3.46 ± 0.19
46 | FPGDSFPVDPTTPVKLG [RRP40] | 2.45 ± 0.058 | 2.58 ± 0.053 | 2.65 ± 0.045 | 2.62 ± 0.048
47 | FLFQNINFERIDEVFSW [GRR1] | 2.36 ± 0.059 | 2.36 ± 0.071 | 2.47 ± 0.056 | 2.28 ± 0.048
48 | SSLLSRLISSKMPGGFT [FAS2] | 2.51 ± 0.069 | 2.41 ± 0.08 | 2.17 ± 0.094 | 2.89 ± 0.064
49 | TPGELVTDDPIWMRGHG [RRP4] | 2.65 ± 0.19 | 2.9 ± 0.13 | – | 3.14 ± 0.15
50 | PIYTGDGWVKLTYKSEL [YMR153W/NUP53] | 2.24 ± 0.081 | 2.38 ± 0.09 | 2.45 ± 0.11 | 1.98 ± 0.049
51 | NSAARNIQHLLYGKRFF [PRE7] | 2.13 ± 0.08 | 2.72 ± 0.084 | 2.12 ± 0.1 | 2.45 ± 0.076
52 | IHSGVLSSIESDLKKRE [YMR153W/NUP53] | 3.07 ± 0.084 | 3.17 ± 0.073 | 3.1 ± 0.066 | 3.09 ± 0.074
53 | LRKQKDSSTTSSNSQQS [ITC1] | 3.12 ± 0.059 | 3.04 ± 0.066 | 3.07 ± 0.06 | 3.19 ± 0.059

— the supplement of paper PMC9732359
